Reference: publication PMC5988349 (Nature, 2018)

Assays:
cryo-EM structure = biological target: the molecule itself; assay: cryo-EM structure
[1] = biological target: β-actin subunit of pig dynactin (pig (endogenous in pig brain), UniProt Q6QAQ1 1-375); assay: cryo-EM structure

binding result [1] | Binder | binding result (cryo-EM structure)
 | BICDR1 (BICD related-1), as used for the cryo-EM of TDR (natural protein) MSAFCLGLAGRASAPAEPDSACCMELPAGAGDAVRSPATAAALVSFPGGPGELELALEEELALLAAGERSSEPGEHPQAEPESPVEGHGPPLPPPPTQDPELLSVIRQKEKDLVLAARLGKALLERNQDMSRQYEQMHKELTDKLEHLEQEKHELRRRFENREGEWEGRVSELETDVKQLQDELERQQLHLREADREKTRAVQELSEQNQRLLDQLSRASEVERQLSMQVHALKEDFREKNSSTNQHIIRLESLQAEIKMLSDRKRELEHRLSATLEENDLLQGTVEELQDRVLILERQGHDKDLQLHQSQLELQEVRLSYRQLQGKVEELTEERSLQSSAATSTSLLSEIEQSMEAEELEQEREQLRLQLWEAYCQVRYLCSHLRGNDSADSAVSTDSSMDESSETSSAKDVPAGSLRTALNDLKRLIQSIVDGVEPTVTLLSVEMTALKEERDRLRVTSEDKEPKEQLQKAIRDRDEAIAKKNAVELELAKCKMDMMSLNSQLLDAIQQKLNLSQQLEAWQDDMHRVIDRQLMDTHLKEQSRPAAAAFPRGHGVGRGQEPSTADGKRLFSFFRKI | binds
binds | dynein heavy chain (HC) residues 1-1455 (domain or fragment) MSEPGGGGGEDGSAGLEVSAVQNVADVSVLQKHLRKLVPLLLEDGGEAPAALEAALEEKSALEQMRKFLSDPQVHTVLVERSTLKEDVGDEGEEEKEFISYNINIDIHYGVKSNSLAFIKRTPVIDADKPVSSQLRVLTLSEDSPYETLHSFISNAVAPFFKSYIRESGKADRDGDKMAPSVEKKIAELEMGLLHLQQNIEIPEISLPIHPMITNVAKQCYERGEKPKVTDFGDKVEDPTFLNQLQSGVNRWIREIQKVTKLDRDPASGTALQEISFWLNLERALYRIQEKRESPEVLLTLDILKHGKRFHATVSFDTDTGLKQALETVNDYNPLMKDFPLNDLLSATELDKIRQALVAIFTHLRKIRNTKYPIQRALRLVEAISRDLSSQLLKVLGTRKLMHVAYEEFEKVMVACFEVFQTWDDEYEKLQVLLRDIVKRKREENLKMVWRINPAHRKLQARLDQMRKFRRQHEQLRAVIVRVLRPQVTAVAQQNQGEVPEPQDMKVAEVLFDAADANAIEEVNLAYENVKEVDGLDVSKEGTEAWEAAMKRYDERIDRVETRITARLRDQLGTAKNANEMFRIFSRFNALFVRPHIRGAIREYQTQLIQRVKDDIESLHDKFKVQYPQSQACKMSHVRDLPPVSGSIIWAKQIDRQLTAYMKRVEDVLGKGWENHVEGQKLKQDGDSFRMKLNTQEIFDDWARKVQQRNLGVSGRIFTIESTRVRGRTGNVLKLKVNFLPEIITLSKEVRNLKWLGFRVPLAIVNKAHQANQLYPFAISLIESVRTYERTCEKVEERNTISLLVAGLKKEVQALIAEGIALVWESYKLDPYVQRLAETVFNFQEKVDDLLIIEEKIDLEVRSLETCMYDHKTFSEILNRVQKAVDDLNLHSYSNLPIWVNKLDMEIERILGVRLQAGLRAWTQVLLGQAEDKAEVDMDTDAPQVSHKPGGEPKIKNVVHELRITNQVIYLNPPIEECRYKLYQEMFAWKMVVLSLPRIQSQRYQVGVHYELTEEEKFYRNALTRMPDGPVALEESYSAVMGIVSEVEQYVKVWLQYQCLWDMQAENIYNRLGEDLNKWQALLVQIRKARGTFDNAETKKEFGPVVIDYGKVQSKVNLKYDSWHKEVLSKFGQMLGSNMTEFHSQISKSRQELEQHSVDTASTSDAVTFITYVQSLKRKIKQFEKQVELYRNGQRLLEKQRFQFPPSWLYIDNIEGEWGAFNDIMRRKDSAIQQQVANLQMKIVQEDRAVESRTTDLLTDWEKTKPVTGNLRPEEALQALTIYEGKFGRLKDDREKCAKAKEALELTDTGLLSGSEERVQVALEELQDLKGVWSELSKVWEQIDQMKEQPWVSVQPRKLRQNLDALLNQLKSFPARLRQYASYEFVQRLLKGYMKINMLVIELKSEALKDRHWKQLMKRLHVNWVVSELTLGQIWDVDLQKNEAIVKDVLLVAQG | binds
